Measurements taken from PMC2195672.

Biological target: HLA-A2 molecules immunoaffinity-purified from Jesthom cells, with added human β2-microglobulin (human (endogenous in Jesthom) | human)

HBV core 18-27, synthetic peptide
Kd: 40 nM
